Source: publication PMC5383425, “Differential CLE peptide perception by plant receptors implicated from structural and functional analyses of TDIF-TDR interactions” (PLoS ONE, 2017)
Square brackets hold non-standard residues; d marks the D form. Ends that are not written are not given here. Hyp = O=C(O)[C@@H]1C[C@@H](O)CN1

Columns and labels:
Experiment in all cases: ITC; 0.5–1 mM peptide titrated into 10–40 μM ecdTDR; 25°C; 10 mM sodium citrate, 100 mM NaCl, pH 5.5; fitted to one set of binding sites; MicroCal Auto-iTC200
Conditions in all cases: both partners purified
ecdTDR W325A mutant = molecular target: T1, ecdTDR W325A mutant (Arabidopsis thaliana, UniProt Q9FII5 30-642, single alanine substitution of W325)
T1 construct: TDR/PXY of A. thaliana, extracellular domain, residues 30-642; also called single alanine substitution of W325; source: High Five insect cells (baculovirus), secreted, purified as the wild type (Ni-NTA, size-exclusion chromatography)
T1 sequence (looked up): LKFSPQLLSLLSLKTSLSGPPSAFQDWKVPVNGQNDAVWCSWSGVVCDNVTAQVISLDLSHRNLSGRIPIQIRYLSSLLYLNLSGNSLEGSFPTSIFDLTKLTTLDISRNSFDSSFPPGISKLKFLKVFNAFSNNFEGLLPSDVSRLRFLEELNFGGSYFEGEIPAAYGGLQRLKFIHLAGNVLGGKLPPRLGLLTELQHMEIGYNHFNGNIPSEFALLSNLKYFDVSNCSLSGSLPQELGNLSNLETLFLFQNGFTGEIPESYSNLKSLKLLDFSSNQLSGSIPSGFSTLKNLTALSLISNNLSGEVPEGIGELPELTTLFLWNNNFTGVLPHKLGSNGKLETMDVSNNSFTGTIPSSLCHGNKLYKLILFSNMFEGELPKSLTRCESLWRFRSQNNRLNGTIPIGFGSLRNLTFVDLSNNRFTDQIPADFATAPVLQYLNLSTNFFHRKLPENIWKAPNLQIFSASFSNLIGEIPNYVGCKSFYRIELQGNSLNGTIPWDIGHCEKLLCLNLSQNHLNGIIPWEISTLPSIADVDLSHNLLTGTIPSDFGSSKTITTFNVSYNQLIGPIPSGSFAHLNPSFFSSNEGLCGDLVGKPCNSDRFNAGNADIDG

ecdTDR R138E mutant = molecular target: T2, ecdTDR R138E mutant (Arabidopsis thaliana, UniProt Q9FII5 30-642, R138E)
T2 construct: TDR/PXY of A. thaliana, extracellular domain, residues 30-642; source: High Five insect cells (baculovirus), secreted, purified as the wild type (Ni-NTA, size-exclusion chromatography)
T2 sequence (looked up): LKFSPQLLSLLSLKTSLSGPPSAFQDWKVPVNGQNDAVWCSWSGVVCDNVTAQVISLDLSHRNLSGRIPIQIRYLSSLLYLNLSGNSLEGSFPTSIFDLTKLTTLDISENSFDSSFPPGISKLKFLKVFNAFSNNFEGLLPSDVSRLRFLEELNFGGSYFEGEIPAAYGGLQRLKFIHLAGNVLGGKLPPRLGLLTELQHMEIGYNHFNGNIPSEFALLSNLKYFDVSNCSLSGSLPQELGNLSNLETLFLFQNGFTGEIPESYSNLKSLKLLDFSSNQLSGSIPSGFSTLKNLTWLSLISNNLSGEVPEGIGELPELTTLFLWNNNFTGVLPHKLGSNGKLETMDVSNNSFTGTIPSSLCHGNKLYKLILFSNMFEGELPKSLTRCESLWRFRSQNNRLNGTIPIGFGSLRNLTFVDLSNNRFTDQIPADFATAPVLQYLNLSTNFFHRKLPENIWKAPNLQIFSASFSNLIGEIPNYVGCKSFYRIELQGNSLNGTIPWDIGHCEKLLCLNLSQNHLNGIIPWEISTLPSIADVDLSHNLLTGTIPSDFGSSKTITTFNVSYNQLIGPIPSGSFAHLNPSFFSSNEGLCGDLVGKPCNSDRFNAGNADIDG

[1] = molecular target: T3, ecdTDR F279 alanine mutant (Arabidopsis thaliana, UniProt Q9FII5 30-642, alanine substitution of F279)
T3 construct: TDR/PXY of A. thaliana, extracellular domain, residues 30-642; The text says only 'mutational analyses' of F279; source: High Five insect cells (baculovirus), secreted, purified as the wild type (Ni-NTA, size-exclusion chromatography)
T3 sequence (looked up): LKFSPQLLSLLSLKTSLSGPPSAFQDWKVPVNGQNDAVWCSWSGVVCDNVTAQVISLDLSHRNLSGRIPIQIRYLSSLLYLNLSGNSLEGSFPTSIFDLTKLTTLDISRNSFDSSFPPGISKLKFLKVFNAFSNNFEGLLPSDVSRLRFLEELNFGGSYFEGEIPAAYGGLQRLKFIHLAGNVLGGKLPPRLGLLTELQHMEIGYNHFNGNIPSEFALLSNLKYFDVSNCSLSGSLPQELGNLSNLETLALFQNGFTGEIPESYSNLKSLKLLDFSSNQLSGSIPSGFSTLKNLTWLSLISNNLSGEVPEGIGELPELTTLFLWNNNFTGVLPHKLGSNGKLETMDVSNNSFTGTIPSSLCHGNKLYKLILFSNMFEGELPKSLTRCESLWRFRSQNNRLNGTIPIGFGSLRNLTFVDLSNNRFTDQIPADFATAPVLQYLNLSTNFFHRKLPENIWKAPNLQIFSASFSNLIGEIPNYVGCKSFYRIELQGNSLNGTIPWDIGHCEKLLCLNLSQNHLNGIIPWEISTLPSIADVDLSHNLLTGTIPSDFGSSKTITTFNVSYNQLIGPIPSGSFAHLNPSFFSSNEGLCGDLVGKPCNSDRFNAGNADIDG

Measured: binding result

B1: Tracheary Element Differentiation Inhibitory Factor (TDIF) peptide (peptide)
peptide: HEV[Hyp]SG[Hyp]NPISN
notes: TDIF, the 12-residue CLE peptide processed from CLE41 and CLE44 of A. thaliana; printed as HEV(Hyp)SG(Hyp)NPISN; numbers count on: the 12-residue peptide; CLE44 encodes the same peptide; also called wild type TDIF; wtTDIF; source: synthetic peptide (peptide 2.0)
binds: all assays above
